According to patent US20140335107A1 (published 2014):
Residue numbers refer to the chain shown, from its start. Blank lines part the entries; values can stand above or below the binder they belong to. Where no end group is shown, it is not given here.

Tests used:
[1] = target: T1, extracellular domain of human CD79b fused to Fc (huCD79becd-Fc) (UniProt P40259 29-159); experiment: Biacore; Fab
T1 chain: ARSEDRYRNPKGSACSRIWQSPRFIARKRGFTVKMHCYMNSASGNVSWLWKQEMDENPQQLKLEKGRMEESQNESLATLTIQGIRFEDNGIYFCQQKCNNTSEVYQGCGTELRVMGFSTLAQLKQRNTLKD

[2] = target: T2, extracellular domain of human CD79b (huCD79becd) (UniProt P40259 29-159); experiment: Biacore; Fab
T2 chain: T1 chain

[3] = target: T2, extracellular domain of human CD79b …; experiment: Biacore; IgG
[4] = target: T1, extracellular domain of human CD79b …; experiment: Biacore; IgG
[5] = target: T3, 16 amino acid peptide containing the epitope for MA79b (ARSEDRYRNPKGSACK) (also: biotinylated (site not given here)); experiment: Biacore; IgG
T3 peptide: ARSEDRYRNPKGSACK

Kd [4]: 2 nM | Kd [5]: 1 nM | Kd [3]: 3 nM
B3: MA79b-grafted humanized antibody variant L2/H3 (huMA79b L2/H3), IgG (antibody, V domains shown)
VH: EVQLVESGGGLVQPGGSLRLSCAASGYTFSSYWIEWVRQAPGKGLEWVGEILPGGGDTNYNEIFKGRFTISADTSKNTAYLQMNSLRAEDTAVYYCTRRVPIRLDYWGQGTLVTVSS
VL: DIQMTQSPSSLSASVGDRVTITCKASQSVDYDGDSFLNWYQQKPGKAPKLLIYAARKLGRGVPSRFSGSGSGTDFTLTISSLQPEDFATYYCQQSNEDPLTFGQGTKVEIKR

Kd [3]: 43 nM
B6: MA79b-grafted humanized antibody variant L2-2 (huMA79b L2-2), IgG (antibody, V domains shown)
VH: B3 VH with I102V, R103Y, L104F
VL: B3 VL

Kd [4]: 2 nM | Kd [3]: 4.7 nM
B7: murine anti-CD79b monoclonal antibody MA79b (antibody, V domains shown)
VH: EVQLQQSGAELMKPGASVKISCKATGYTFSSYWIEWVKQRPGHGLEWIGEILPGGGDTNYNEIFKGKATFTADTSSNTAYMQLSSLTSEDSAVYYCTRRVPVYFDYWGQGTSVTVSS
VL: DIVLTQSPASLAVSLGQRATISCKASQSVDYDGDSFLNWYQQKPGQPPKLFIYAASNLESGIPARFSGSGSGTDFTLNIHPVEEEDAATYYCQQSNEDPLTFGAGTELELKR

Kd [1]: 200 nM
B8: MA79b (Fab) (antibody, V domains shown)
VH: B7 VH
VL: DIVLTQSPASLAVSLGQRATISCKASQSVDYDGDSFLNWYQKPGQPPKLFIYAASNLESGIPARFSGSGSGTDFTLNIHPVEEEDAATYYCQQSNEDPLTFGAGTELELKR

The next lines start with the binder.

B1: huMA79b graft variant with HVR-L2 of SEQ ID NO: 22 (huMA79b L2-2), Fab (Fab, V domains shown)
VH: B3 VH with I102V, R103Y, L104F
VL: B3 VL
Kd [1]: 44 nM | Kd [2]: 39 nM

B2: MA79b-grafted humanized antibody (huMA79b graft), IgG (antibody, V domains shown)
VH: B3 VH with I102V, R103Y, L104F
VL: B3 VL with R56S, K57N, G59E, R60S
Kd [3]: 261 nM

B4: hu MA79b H1-6 (IgG) (antibody, V domains shown)
VH: B3 VH with T28P, S30T, S31R, E35N, I102V, R103Y, L104F
VL: B3 VL with R56S, K57N, G59E, R60S
Kd [3]: 42 nM

B5: hu MA79b H3-10 (IgG) (antibody, V domains shown)
VH: B3 VH
VL: B3 VL with R56S, K57N, G59E, R60S
Kd [3]: 29 nM
